Reference: US20030091565A1 (Human Genome Sciences, published 2003)
No end group written: not given here.

Assays:
[1] = biological target: T1, B lymphocyte stimulator protein (BLyS), recombinant (human, UniProt Q9Y275 134-285, limits assumed, biotinylated in the phage screening and phage ELISA; unlabeled in fluorescence anisotropy); experiment: fluorescence anisotropy
T1 construct: also called biotinylated BLyS; b-BLyS
Description: Dissociation constants between the synthetic peptides and BLyS (free in solution) were measured by fluorescence anisotropy (FA). In these experiments, the concentration of the fluorescein-labeled peptide is held constant and the BLyS protein concentration was varied. The observed change in anisotropy is fit to the following equation via nonlinear regression to obtain the apparent KD.
Binding reactions containing 50 nM fluorescein-labeled peptide and a varied concentration of BLyS in a volume between 10 and 20 μL per well were performed in 384 well microplates. Reactions were assayed using a Tecan Polarion fluorescence polarization plate reader. Cross-competition studies between peptides were performed using 50 nM fluorescein-labeled peptide and 1-2 μM BLyS in the presence and absence of 100 μM unlabeled peptide. […] Other buffers in which dissociation constants of BLyS Binding polypeptides were detremined include: [pH 6.0, 0.01% Tween], [pH 6.0, 0.1% gelatin], [pH5.0, 0.01% Tween], [pH9.0, 0.1% Tween], [pH6.0, 15% ethylene glycol, 0.01 % Tween], ], [pH5.0, 15% ethylene glycol, 0.01 % Tween], and [pH9.0, 15% ethylene glycol, 0.01 % Tween].

[2] = biological target: T1, B lymphocyte stimulator protein (BLyS), …; experiment: not stated there
[3] = biological target: T1, B lymphocyte stimulator protein (BLyS), …; experiment: not stated there (fluorescence anisotropy elsewhere)

T1 sequence (Q9Y275 134-285 limits assumed): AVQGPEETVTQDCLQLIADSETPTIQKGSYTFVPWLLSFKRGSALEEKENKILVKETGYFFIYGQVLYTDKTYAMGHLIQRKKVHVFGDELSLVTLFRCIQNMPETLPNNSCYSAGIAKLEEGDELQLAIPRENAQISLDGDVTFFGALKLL

B1: DX876 (peptide)
peptide: Ac-WYDPLTKLWLGGK(fitc)
notes: 10-mer core (positions 3-12 of the 14-mer) with GGK linker
B1 gave a Kd [1] of 171 nM.

VPFCDLLTKHCFEA (on M13 phage; also called TN8-01-B07) [453-01-B07] was tested, and the Kd [2] was 700 nM.

For Ac-WTDSLTGLWFPDGGPGPEGGGK [DX221], the Kd [3] was 3000 nM.
